The values below come from publication PMC9274624.

Holding throughout (assay): SPR
The target of test [1] is sheep ACE2 extracellular domain (residues 1-740) fused with the Fc domain of mouse IgG (sheep).
Test [2] concerns the target pig ACE2 extracellular domain (residues 1-740) fused with the Fc domain of mouse IgG (pig) (UniProt K7GLM4).
Test [3] deals with rabbit ACE2 extracellular domain (residues 1-740) fused with the Fc domain of mouse IgG (rabbit) (UniProt G1TEF4).
In test [4] the target is fulvous fruit bat ACE2 extracellular domain (residues 1-740) fused with the Fc domain of mouse IgG (fulvous fruit bat).
Test [5] addresses fox ACE2 extracellular domain (residues 1-740) fused with the Fc domain of mouse IgG (fox).
The target in test [6] is big-eared horseshoe bat ACE2 extracellular domain (residues 1-740) fused with the Fc domain of mouse IgG (big-eared horseshoe bat).
Test [7] addresses mink ACE2 extracellular domain (residues 1-740) fused with the Fc domain of mouse IgG (mink).
Test [8] concerns the target horse ACE2 extracellular domain (residues 1-740) fused with the Fc domain of mouse IgG (horse) (UniProt F6V9L3).
Test [9] addresses goat ACE2 extracellular domain (residues 1-740) fused with the Fc domain of mouse IgG (goat).
Test [10] concerns the target raccoon dog ACE2 extracellular domain (residues 1-740) fused with the Fc domain of mouse IgG (raccoon dog) (UniProt B4XEP4).
The target of test [11] is alpaca ACE2 extracellular domain (residues 1-740) fused with the Fc domain of mouse IgG (alpaca).
The target of test [12] is wild Bactrian camel ACE2 extracellular domain (residues 1-740) fused with the Fc domain of mouse IgG (wild Bactrian camel).
For test [13], the target named is monkey ACE2 extracellular domain (residues 1-740) fused with the Fc domain of mouse IgG (monkey) (UniProt F7AH40).

“SARS-CoV-2 Delta RBD (residues 319-541) (from UniProt P0DTC2 319-541) (domain or fragment)”: the Kd in test [1] was 61 nM; in test [2], 64.4 nM; in test [3] it was 58.3 nM; in test [4], 200 nM; in test [5], 35.6 nM; in test [6] it was 49.6 nM. Also, the equilibrium dissociation constant (Kd) in test [7] was determined as 288 nM; in test [8] it was 79 nM; in test [9] it was 66.2 nM; in test [10], 124 nM; in test [11] it was 381 nM; in [12], 233 nM. The substance further displayed a Kd in [13] of 16.5 nM.
